# In doi:10.1101/2020.03.20.000240:
# Legend:
# Experiment in all cases: SPR
# [1] = target: UmuDAb C-terminal domain (CTD) (Acinetobacter baumannii ATCC 17978)
# [2] = target: full length UmuDAb transcription repressor from Acinetobacter baumannii (Acinetobacter baumannii ATCC 17978)
# [3] = target: full-length UmuD, component of DNA polymerase V, from Acinetobacter baumannii (Acinetobacter baumannii ATCC 17978)
substance,measurement,setting,value
DdrR protein from Acinetobacter baumannii (natural protein),Kd,[1],0.106 µM
same,Kd,[2],0.0833 µM
same,Kd,[3],0.294 µM
